Assay results published in paper PMC5182127, “Cellular and viral peptides bind multiple sites on the N‐terminal domain of clathrin” (Traffic (Copenhagen, Denmark), 2016).

T1: clathrin heavy chain N‐terminal domain (1‐363) (bovine, UniProt P49951 1-363)
T1 construct: also called NTD; clathrin NTD; source: E. coli BL21(DE3) pLysS, purified (glutathione Sepharose, thrombin cleavage, Superdex 200); not shown: GST, N-terminal, cleaved
T1 sequence (looked up): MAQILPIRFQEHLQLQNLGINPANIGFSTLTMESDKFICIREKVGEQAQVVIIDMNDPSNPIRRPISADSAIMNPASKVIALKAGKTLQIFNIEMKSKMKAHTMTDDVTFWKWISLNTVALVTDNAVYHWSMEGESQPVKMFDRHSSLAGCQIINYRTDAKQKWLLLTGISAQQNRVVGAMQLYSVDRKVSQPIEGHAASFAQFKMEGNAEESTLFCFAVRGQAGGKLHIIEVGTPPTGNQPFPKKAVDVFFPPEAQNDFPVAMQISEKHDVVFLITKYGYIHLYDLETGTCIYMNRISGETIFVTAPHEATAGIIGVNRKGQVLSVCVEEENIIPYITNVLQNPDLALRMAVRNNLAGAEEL

T2: GST‐Amph4T1 (rat, UniProt O08838 349-356)
T2 construct: also called extended amphiphysin CBM construct; source: E. coli BL21(DE3) pLysS, purified (glutathione resin, SEC)
T2 chain: ETLLDLDFLERPHRD

T3: GST‐AmphCBM (human, UniProt P49418 349-358)
T3 construct: also called human amphiphysin I CBM; source: E. coli BL21(DE3) pLysS, purified (glutathione resin, SEC); not shown: GST, N-terminal, kept
T3 chain (looked up): ETLLDLDFDP

T4: GST‐AP2CBM (human, UniProt P63010 629-640)
T4 construct: also called CBM from flexible hinge of β2 adaptin subunit of human AP2; source: E. coli BL21(DE3) pLysS, purified (glutathione resin, SEC); not shown: GST, N-terminal, kept
T4 chain (looked up): GDLLNLDLGPPV

T5: GST‐AP2arrS (human, UniProt P63010 623-632)
T5 construct: also called extended arrestin motif (LLGDLL); source: E. coli BL21(DE3) pLysS, purified (glutathione resin, SEC); not shown: GST, N-terminal, kept
T5 chain (looked up): SQGDLLGDLL

B1: HDAg‐L1pep (peptide)
peptide: SDILFPADS
notes: also called peptide of the putative CBM of HDAg-L1; source: synthetic peptide, bought: Designer Bioscience
B2: Amph4T1pep (peptide)
peptide: ETLLDLDFLE
notes: source: synthetic peptide, bought: Genscript
B3: AmphCBMlongpep (peptide)
peptide: ETLLDLDFDPFK
notes: as for B2
B4: His‐NTD‐NEMO Q89A + F91K (other, UniProt P49951 1-363, looked up)
chain: MAQILPIRFQEHLQLQNLGINPANIGFSTLTMESDKFICIREKVGEQAQVVIIDMNDPSNPIRRPISADSAIMNPASKVIALKAGKTLAIKNIEMKSKMKAHTMTDDVTFWKWISLNTVALVTDNAVYHWSMEGESQPVKMFDRHSSLAGCQIINYRTDAKQKWLLLTGISAQQNRVVGAMQLYSVDRKVSQPIEGHAASFAQFKMEGNAEESTLFCFAVRGQAGGKLHIIEVGTPPTGNQPFPKKAVDVFFPPEAQNDFPVAMQISEKHDVVFLITKYGYIHLYDLETGTCIYMNRISGETIFVTAPHEATAGIIGVNRKGQVLSVCVEEENIIPYITNVLQNPDLALRMAVRNNLAGAEELKSSVVGSERKRGMQLEDLKQQLQQAEEALVAKQEVIDKLKEEAEQHKIVMETVPVLKAQADIYKADFQAERQAREKLAEKKELLQEQLEQLQREYSKLKASCQESARIEDMRKRHVEVSQ
notes: also called clathrin box mutant; not shown: His6, N-terminal, kept
B5: His‐NTD‐NEMO Q89A + F91K + F9W (other, UniProt P49951 1-363, looked up)
chain: MAQILPIRWQEHLQLQNLGINPANIGFSTLTMESDKFICIREKVGEQAQVVIIDMNDPSNPIRRPISADSAIMNPASKVIALKAGKTLAIKNIEMKSKMKAHTMTDDVTFWKWISLNTVALVTDNAVYHWSMEGESQPVKMFDRHSSLAGCQIINYRTDAKQKWLLLTGISAQQNRVVGAMQLYSVDRKVSQPIEGHAASFAQFKMEGNAEESTLFCFAVRGQAGGKLHIIEVGTPPTGNQPFPKKAVDVFFPPEAQNDFPVAMQISEKHDVVFLITKYGYIHLYDLETGTCIYMNRISGETIFVTAPHEATAGIIGVNRKGQVLSVCVEEENIIPYITNVLQNPDLALRMAVRNNLAGAEELKSSVVGSERKRGMQLEDLKQQLQQAEEALVAKQEVIDKLKEEAEQHKIVMETVPVLKAQADIYKADFQAERQAREKLAEKKELLQEQLEQLQREYSKLKASCQESARIEDMRKRHVEVSQ
notes: also called mutant with disrupted clathrin and Royle boxes; printed in the text as Q98A + F91K + F9W; not shown: His6, N-terminal, kept
B6: His‐NTD‐NEMO Q192Y (other, UniProt P49951 1-363, looked up)
chain: MAQILPIRFQEHLQLQNLGINPANIGFSTLTMESDKFICIREKVGEQAQVVIIDMNDPSNPIRRPISADSAIMNPASKVIALKAGKTLQIFNIEMKSKMKAHTMTDDVTFWKWISLNTVALVTDNAVYHWSMEGESQPVKMFDRHSSLAGCQIINYRTDAKQKWLLLTGISAQQNRVVGAMQLYSVDRKVSYPIEGHAASFAQFKMEGNAEESTLFCFAVRGQAGGKLHIIEVGTPPTGNQPFPKKAVDVFFPPEAQNDFPVAMQISEKHDVVFLITKYGYIHLYDLETGTCIYMNRISGETIFVTAPHEATAGIIGVNRKGQVLSVCVEEENIIPYITNVLQNPDLALRMAVRNNLAGAEELKSSVVGSERKRGMQLEDLKQQLQQAEEALVAKQEVIDKLKEEAEQHKIVMETVPVLKAQADIYKADFQAERQAREKLAEKKELLQEQLEQLQREYSKLKASCQESARIEDMRKRHVEVSQ
notes: also called arrestin box mutant; not shown: His6, N-terminal, kept
B7: His‐NTD‐NEMO Q89A + F91K + Q192Y (other, UniProt P49951 1-363, looked up)
chain: MAQILPIRFQEHLQLQNLGINPANIGFSTLTMESDKFICIREKVGEQAQVVIIDMNDPSNPIRRPISADSAIMNPASKVIALKAGKTLAIKNIEMKSKMKAHTMTDDVTFWKWISLNTVALVTDNAVYHWSMEGESQPVKMFDRHSSLAGCQIINYRTDAKQKWLLLTGISAQQNRVVGAMQLYSVDRKVSYPIEGHAASFAQFKMEGNAEESTLFCFAVRGQAGGKLHIIEVGTPPTGNQPFPKKAVDVFFPPEAQNDFPVAMQISEKHDVVFLITKYGYIHLYDLETGTCIYMNRISGETIFVTAPHEATAGIIGVNRKGQVLSVCVEEENIIPYITNVLQNPDLALRMAVRNNLAGAEELKSSVVGSERKRGMQLEDLKQQLQQAEEALVAKQEVIDKLKEEAEQHKIVMETVPVLKAQADIYKADFQAERQAREKLAEKKELLQEQLEQLQREYSKLKASCQESARIEDMRKRHVEVSQ
notes: also called His‐NTD‐NEMO mutated at both the clathrin and arrestin boxes; not shown: His6, N-terminal, kept
B8: AP2CBMpep (peptide)
peptide: CGDLLNLDLG
notes: also called peptide of the β2 adaptin CBM; source: synthetic peptide, bought: Designer Bioscience
B9: AmphCBMpep (peptide)
peptide: ETLLDLDFDP
notes: also called peptide of the amphiphysin CBM; source: synthetic peptide, bought: Genscript
B10: HDAg‐L2pep (peptide)
peptide: SPRLPLLES
notes: also called peptide of the putative CBM of HDAg-L2; source: synthetic peptide, bought: Designer Bioscience

How the values were obtained:
Conditions in all cases: both partners purified
[1] = target: T1, clathrin heavy chain N‐terminal domain …; assay: crystal structure; co-crystals of NTD (14 or 20 mg/mL) with 3.4-3.6 mM peptide, sitting drop, 20°C, sodium malonate; peptide also in the cryoprotectant
GST‐Amph4T1 = target: T2, GST‐Amph4T1; assay: pull-down; 500 µg GST or GST-peptide bait on glutathione sepharose 4B; 0.1 mg/mL wild-type or mutant His-NTD-NEMO as prey, 2 h, 4°C; 25 mM HEPES-KOH, 125 mM potassium acetate, 5 mM magnesium acetate, 2 mM EDTA, 2 mM EGTA, 1 mM DTT, pH 7.2; washes with PBS; immunoblot with anti-clathrin NTD antibody
GST‐AmphCBM = target: T3, GST‐AmphCBM; assay: as above
GST‐AP2CBM = target: T4, GST‐AP2CBM; assay: as above
GST‐AP2arrS = target: T5, GST‐AP2arrS; assay: as above

Row | Binder | binding result [1] | binding result (GST‐Amph4T1) | binding result (GST‐AmphCBM) | binding result (GST‐AP2CBM) | other results
1 | B1 | binds | – | – | – | –
2 | B2 | binds | – | – | – | –
3 | B3 | binds | – | – | – | –
4 | B4 | – | binds | binds | binds | –
5 | B5 | – | binds | – | binds | binding result (GST‐AP2arrS): binds
6 | B6 | – | binds | binds | binds | –
7 | B7 | – | binds | binds | – | –
8 | B8 | binds | – | – | – | –
9 | B9 | binds | – | – | – | –
10 | B10 | binds | – | – | – | –
